Results reported in patent US20220298237A1 (KEIO UNIVERSITY, published 2022).
Residue numbers refer to the chain shown, from its start. Several values for one entry are separate records, joined by “and”; a condition that tells them apart may be missing. Equal values may be shown once.

T1: mouse aquaporin 3 (AQP3) on cells (mouse, UniProt Q8R2N1 1-292)
T1 sequence (looked up): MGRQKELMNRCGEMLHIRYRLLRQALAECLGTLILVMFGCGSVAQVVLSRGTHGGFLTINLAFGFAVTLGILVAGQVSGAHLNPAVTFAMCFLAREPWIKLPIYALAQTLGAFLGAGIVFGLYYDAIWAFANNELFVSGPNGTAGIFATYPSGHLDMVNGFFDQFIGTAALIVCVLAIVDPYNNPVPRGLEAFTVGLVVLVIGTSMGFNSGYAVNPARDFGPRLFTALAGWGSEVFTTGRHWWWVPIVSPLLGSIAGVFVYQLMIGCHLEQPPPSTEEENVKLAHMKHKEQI

T2: oligopeptide ATYPSGH (SEQ ID NO: 103)
T2 construct: Synthetic peptide, part of Loop C of AQP3
T2 peptide: ATYPSGH

T3: oligopeptide SGPNGTAGIFATYPS (SEQ ID NO: 94)
T3 construct: Synthetic peptide, part of Loop C of AQP3
T3 peptide: SGPNGTAGIFATYPS

T4: oligopeptide AGIFATYPSGHLDM (SEQ ID NO: 106)
T4 construct: Synthetic peptide, part of Loop C of AQP3
T4 peptide: AGIFATYPSGHLDM

T5: oligopeptide IFATYPSGHLDM (SEQ ID NO: 108)
T5 construct: Synthetic peptide, part of Loop C of AQP3
T5 peptide: IFATYPSGHLDM

T6: oligopeptide PSGHLDM (SEQ ID NO: 98)
T6 construct: Synthetic peptide, part of Loop C of AQP3
T6 peptide: PSGHLDM

T7: oligopeptide FATYPSGHLDM (SEQ ID NO: 109)
T7 construct: Synthetic peptide, part of Loop C of AQP3
T7 peptide: FATYPSGHLDM

T8: oligopeptide GIFATYPSGHLDM (SEQ ID NO: 107)
T8 construct: Synthetic peptide, part of Loop C of AQP3
T8 peptide: GIFATYPSGHLDM

T9: oligopeptide ATYPSG (SEQ ID NO: 104)
T9 construct: Synthetic peptide, part of Loop C of AQP3
T9 peptide: ATYPSG

T10: oligopeptide TYPSGHLDM (SEQ ID NO: 96)
T10 construct: Synthetic peptide, part of Loop C of AQP3
T10 peptide: TYPSGHLDM

T11: oligopeptide YPSGHLDM (SEQ ID NO: 97)
T11 construct: Synthetic peptide, part of Loop C of AQP3; first diluted in DMSO
T11 peptide: YPSGHLDM

T12: oligopeptide SGHLDM (SEQ ID NO: 99)
T12 construct: Synthetic peptide, part of Loop C of AQP3
T12 peptide: SGHLDM

T13: oligopeptide ATYPSGHLDM (SEQ ID NO: 1) (human and mouse)
T13 construct: Synthetic peptide; positions 148 to 157 of the human AQP3 polypeptide, identical in mouse; also called peptide used for immunization; oligopeptide 5
T13 peptide: ATYPSGHLDM

T14: oligopeptide ATYPSGHL (SEQ ID NO: 102)
T14 construct: Synthetic peptide, part of Loop C of AQP3
T14 peptide: ATYPSGHL

T15: oligopeptide GHLDM (SEQ ID NO: 100)
T15 construct: Synthetic peptide, part of Loop C of AQP3
T15 peptide: GHLDM

T16: oligopeptide ATYPSGHLD (SEQ ID NO: 101)
T16 construct: Synthetic peptide, part of Loop C of AQP3
T16 peptide: ATYPSGHLD

T17: oligopeptide TAGIFATYPSGHLDM (SEQ ID NO: 105)
T17 construct: Synthetic peptide, part of Loop C of AQP3
T17 peptide: TAGIFATYPSGHLDM

T18: oligopeptide SRGTHGGFL (SEQ ID NO: 2)
T18 construct: Synthetic peptide of AQP3 Loop A; also called Loop A peptide; control peptide
T18 peptide: SRGTHGGFL

T19: human aquaporin 3 (AQP3) on cells (human, UniProt Q92482 1-292)
T19 construct: whole, on cells; Water channel membrane protein; also called human AQP3; AQP3 on HaCaT cells
T19 sequence (looked up): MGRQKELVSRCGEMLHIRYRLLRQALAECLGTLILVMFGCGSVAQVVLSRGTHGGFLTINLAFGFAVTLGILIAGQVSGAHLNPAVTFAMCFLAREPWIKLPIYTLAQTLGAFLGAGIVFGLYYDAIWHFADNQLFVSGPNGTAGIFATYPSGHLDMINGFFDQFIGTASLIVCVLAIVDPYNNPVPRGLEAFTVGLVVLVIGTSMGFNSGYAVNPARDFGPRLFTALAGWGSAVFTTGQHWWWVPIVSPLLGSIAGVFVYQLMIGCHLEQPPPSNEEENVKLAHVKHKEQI

B1: SC-B6 (IgG) (antibody, V domains shown)
VH: QSVKESGGRLVTPGAPLTLTCTVSGFSLNNYAMTWVRQAPGKGLEWIGIINNDGISSTWYASWVKGRFIISKTSTTVDLKMTSLTTEDTATYFCARGGTSGYDIWGPGTLVTVSL
VL: AQGPTQTPSPVSAAVGGTVTINCQSSPSVYKNYLSWYQQKPGQPPKLLIYGASTLASGVPSRFKGSRSGTQFTLTISDVQCDDAATYYCAGGYIGSRDIFSFGGGTEVVVK
notes: also called anti AQP3 antibody SC-B6
B2: SC-F8 (IgG) (antibody, V domains shown)
VH: B1 VH with S2T, A15G, P16S, G25R, N29S, I69T, V77M
VL: B1 VL with G3V, P4L, R67G, I94R, R97S, S101A
notes: also called anti AQP3 antibody SC-F8

Assays:
[1] = target: T1, mouse aquaporin 3 (AQP3) on cells; assay: cell-based or functional assay
[2] = target: T2, oligopeptide ATYPSGH (SEQ ID NO: 103); assay: ELISA on coated peptide
Experimental: (§1) To determine the important amino acid residues of an epitope in Loop C involved in binding to specific AQP3 antibody clones, peptides of varying lengths were produced. The sequences of these peptides are shown in column 2 of Table 4.
(§2) The various peptides and AQP3 antibody clones were subjected to ELISA binding analyses. […] The microtiter wells (Costar 2690) were coated with 50 μL of each peptide at 4° C. overnight. The wells were washed 3 times with PBS and blocked with 100 μL of 1% BSA/PBS at 37° C. for 1 hour. Each antibody was adjusted to 1 μg/mL in 1% SBA/PBS as above then serially diluted 1:5 in 1% BSA/PBS. The blocker was discarded and the wells were incubated with 50 μL of antibodies at 37° C. for 1.5 hours. The wells were washed 3 times with PBS and mouse antibodies were detected with 50 μL of goat anti-mouse IgG (H+L) HRP conjugate (ThermoFisher 31438) (1:5,000 in 1% BSA/PBS) and rabbit antibodies were detected with 50 μL of goat anti-rabbit IgG (H+L) HRP conjugate (ThermoFisher 31462) (1:5,000 in 1% BSA/PBS) at 37° C. for 1 hour. The wells were washed 3 times with PBS and developed with 50 μL of HRP substrate at RT for 5 min then stopped with 50 μL of 2N sulfuric acid and binding was measured with a plate reader.

[3] = target: T3, oligopeptide SGPNGTAGIFATYPS (SEQ ID …); assay: ELISA on coated peptide
Experimental: as §1, §2

[4] = target: T4, oligopeptide AGIFATYPSGHLDM (SEQ ID NO: …); assay: ELISA on coated peptide
Experimental: as §1, §2

[5] = target: T5, oligopeptide IFATYPSGHLDM (SEQ ID NO: …); assay: ELISA on coated peptide
Experimental: as §1, §2

[6] = target: T6, oligopeptide PSGHLDM (SEQ ID NO: 98); assay: ELISA on coated peptide
Experimental: as §1, §2

[7] = target: T7, oligopeptide FATYPSGHLDM (SEQ ID NO: …); assay: ELISA on coated peptide
Experimental: as §1, §2

[8] = target: T8, oligopeptide GIFATYPSGHLDM (SEQ ID NO: …); assay: ELISA on coated peptide
Experimental: as §1, §2

[9] = target: T9, oligopeptide ATYPSG (SEQ ID NO: 104); assay: ELISA on coated peptide
Experimental: as §1, §2

[10] = target: T10, oligopeptide TYPSGHLDM (SEQ ID NO: 96); assay: ELISA on coated peptide
Experimental: as §1, §2

[11] = target: T11, oligopeptide YPSGHLDM (SEQ ID NO: 97); assay: ELISA on coated peptide
Experimental: as §1, §2

[12] = target: T12, oligopeptide SGHLDM (SEQ ID NO: 99); assay: ELISA on coated peptide
Experimental: as §1, §2

[13] = target: T13, oligopeptide ATYPSGHLDM (SEQ ID NO: 1); assay: ELISA on coated peptide
Experimental: as §1, §2

[14] = target: T14, oligopeptide ATYPSGHL (SEQ ID NO: 102); assay: ELISA on coated peptide
Experimental: as §1, §2

[15] = target: T15, oligopeptide GHLDM (SEQ ID NO: 100); assay: ELISA on coated peptide
Experimental: as §1, §2

[16] = target: T16, oligopeptide ATYPSGHLD (SEQ ID NO: 101); assay: ELISA on coated peptide
Experimental: as §1, §2

[17] = target: T17, oligopeptide TAGIFATYPSGHLDM (SEQ ID …); assay: ELISA on coated peptide
Experimental: as §1, §2

[18] = target: T1, mouse aquaporin 3 (AQP3) on cells; assay: fluorescence binding assay on PAM212 cells, 10 µg/mL
Experimental: (§3) PAM212 cells were reacted with each anti AQP3 antibody at concentrations of none, 1 ng/mL, 10 ng/mL, 100 ng/mL, 1 μg/mL, or 10 μg/mL at 4° C. for 1 hour. After washing the cells, a fluorescent-labeled secondary antibody was added and the reaction was allowed to occur additionally for 1 hour (at 4° C.). By measuring the fluorescence intensity, the binding property of each anti AQP3 antibody to cells was obtained.

[19] = target: T18, oligopeptide SRGTHGGFL (SEQ ID NO: 2); assay: ELISA on peptide SEQ ID NO:2 (FIG. 16B)
[20] = target: T19, human aquaporin 3 (AQP3) on cells; assay: fluorescence binding assay on HaCaT cells, 10 µg/mL
Experimental: as §3, with “HaCaT” for “PAM212”

[21] = target: T13, oligopeptide ATYPSGHLDM (SEQ ID NO: 1); assay: ELISA on peptide SEQ ID NO:1, IgG, 50% binding response (FIG. 16A)

| Binder | binding signal (plate reader) [2] | binding signal (plate reader) [3] | binding signal (plate reader) [4] | binding signal (plate reader) [5] | binding signal (plate reader) [6] | binding signal (plate reader) [7] | binding signal (plate reader) [8] | binding signal (plate reader) [9] | binding signal (plate reader) [10] | binding signal (plate reader) [11] | binding signal (plate reader) [12] | binding signal (plate reader) [13] | binding signal (plate reader) [14] | binding signal (plate reader) [15] | binding signal (plate reader) [16] | binding signal (plate reader) [17] | fold fluorescence intensity over no antibody [18] [fold] | binding result [19] | fold fluorescence intensity over no antibody [20] [fold] | EC50 [21] | further results |
| --- | --- | --- | --- | --- | --- | --- | --- | --- | --- | --- | --- | --- | --- | --- | --- | --- | --- | --- | --- | --- | --- |
| B1 | 3.44 | 2.02 | 3.83 | 3.69 | 2.23 | 3.87 | 3.79 | 0.915 | 4 | 3.96 | 0.135 | 3.98 | 4 | 0.097 | 3.92 | 3.96 | ≥ 2 | no binding | > 2 | 0.01 µg/mL and ~0.06 nM | decrease in H2O2 uptake in PAM212 cells against no antibody control [1]: ~2 fold |
| B2 | 3.81 | 2.99 | 3.92 | 3.91 | 1.56 | 3.92 | 3.86 | 1.77 | 3.92 | 3.94 | 0.071 | 3.97 | 3.99 | 0.06 | 3.91 | 4 | ≥ 2 | no binding | > 2 | 0.01 µg/mL and ~0.06 nM |  |
